This is an account of results in patent publication US20190144565A1 (UCB, published 2019).

To fix the notation:
T1: sFcεRIα, the extracellular portion of the alpha chain of the human high affinity IgE receptor (human, UniProt P12319 26-205)
T1 construct: extracellular domain; also called sFcERIa; Alexa488 labelled sFcεRIα
T1 sequence (looked up): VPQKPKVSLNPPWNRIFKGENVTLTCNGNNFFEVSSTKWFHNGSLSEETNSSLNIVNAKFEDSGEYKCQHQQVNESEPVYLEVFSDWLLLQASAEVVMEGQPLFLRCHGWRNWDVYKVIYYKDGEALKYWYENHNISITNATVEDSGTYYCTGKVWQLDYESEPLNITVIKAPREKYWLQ

B1: sFcεRIα-IgG4-Fc fusion protein (α-γ) (Fc fusion, UniProt P12319 26-205, looked up)
chain: T1 sequence (looked up)
notes: extracellular domain; also called αγ-fusion protein; Alexa Fluor 647 labeled sFcεRIα-IgG4-Fc; not shown: IgG4 Fc
B2: IgE-Fc according to Seq. ID No. 108 (V224-K547) with the mutations N265Q & N371Q (other)
chain: VASRDFTPPTVKILQSSCDGGGHFPPTIQLLCLVSGYTPGTIQITWLEDGQVMDVDLSTASTTQEGELASTQSELTLSQKHWLSDRTYTCQVTYQGHTFEDSTKKCADSNPRGVSAYLSRPSPFDLFIRKSPTITCLVVDLAPSKGTVQLTWSRASGKPVNHSTRKEEKQRNGTLTVTSTLPVGTRDWIEGETYQCRVTHPHLPRALMRSTTKTSGPRAAPEVYAFATPEWPGSRDKRTLACLIQNFMPEDISVQWLHNEVQLPDARHSTTQPRKTKGSGFFVFSRLEVTRAEWEQKDEFICRAVHEAASPSQTVQRAVSVNPGK
notes: also called IgE-Fc (N265Q, N371Q); terbium labeled IgE-Fc

For test [1], the target named is B2. The test is described as follows: TR-FRET; labelled αγ-fusion protein titrated on labelled IgE-Fc, no omalizumab Fab3. (Time-resolved FRET reads energy transfer from a long-lived donor to a nearby acceptor.)
Test [2] addresses T1, sFcεRIα, the extracellular portion of …. The test is described as follows: SPR; IgE-Fc captured on immobilised sFcεRIα. (In general: SPR reads the build-up and loss of mass on a sensor chip optically.)
For test [3], the target named is B1. The test can be described thus: TR-FRET; labelled αγ-fusion protein titrated on labelled IgE-Fc, no omalizumab Fab3.

B1: the EC50 (read off the curve) (in general, the concentration needed to bring the measured effect to its halfway point) in test [1] is roughly 1 nM. As for B2, the binding result in test [2] and in test [3] was “binds” throughout.
